Measurements reported in patent publication US20160304578A1 (XYPHOS BIOSCIENCES, published 2016).

T1: human NKG2D-Fc (human, UniProt P26718 78-216, limits assumed)
T1 construct: not shown: Fc part
T1 sequence (looked up): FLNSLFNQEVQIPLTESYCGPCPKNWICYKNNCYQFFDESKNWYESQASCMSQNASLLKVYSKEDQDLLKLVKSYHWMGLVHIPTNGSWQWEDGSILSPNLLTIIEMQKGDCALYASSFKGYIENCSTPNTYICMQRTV

B1: biotinylated human NKG2D (receptor, UniProt P26718 78-216, looked up)
chain: FLNSLFNQEVQIPLTESYCGPCPKNWICYKNNCYQFFDESKNWYESQASCMSQNASLLKVYSKEDQDLLKLVKSYHWMGLVHIPTNGSWQWEDGSILSPNLLTIIEMQKGDCALYASSFKGYIENCSTPNTYICMQRTV
modifications: biotinylated (site not stated)
notes: also called recombinant biotinylated NKG2D
B2: WT α1-α2 soluble MICA protein (ligand, UniProt Q29983 24-299, looked up)
chain: EPHSLRYNLTVLSWDGSVQSGFLTEVHLDGQPFLRCDRQKCRAKPQGQWAEDVLGNKTWDRETRDLTGNGKDLRMTLAHIKDQKEGLHSLQEIRVCEIHEDNSTRSSQHFYYDGELFLSQNLETKEWTMPQSSRAQTLAMNVRNFLKEDAMKTKTHYHAMHADCLQELRRYLKSGVVLRRTVPPMVNVTRSEASEGNITVTCRASGFYPWNITLSWRQDGVSLSHDTQQWGDVLPDGNGTYQTWVATRICQGEEQRFTCYMEHSGNHSTHPVPSGK
notes: also called WT MICA; WT NKG2DL

Experiments:
[1] = target: B2; test: biolayer interferometry (Octet), Kd = kOFF/kON
[2] = target: B2; test: biolayer interferometry (Octet), surface-coated biotinylated human NKG2D, 100 nM protein
human NKG2D-Fc = target: T1, human NKG2D-Fc; test: competition ELISA: inhibits 2 nM human NKG2D-Fc binding to plate-coated WT sMICA
Source text: Using a competitive binding ELISA, we determined the relative NKG2D binding affinities of the 4 modified α1-α2 variants.

Row | Binder | Kd [1] [nM] | koff [2] [s⁻¹] | kon [2] [M⁻¹ s⁻¹] | IC50 (human NKG2D-Fc) [nM]
1 | B1 | 13.8 | 0.0018 | 130000 | –
2 | B2 | – | – | – | 19.4
